US20240002497A1 (Merck Sharp & Dohme, published 2024)

What was measured:
huNav1.7α + β1-β2-β3 = molecular target: T1, huNav1.7α + β1-β2-β3 (human, UniProt Q15858 1-1988; A5A6L6 19-218; O60939 30-215; Q2KI11 23-215); experiment: binding FACS, CHO FlpIn
T1 construct: also called huNav1.7-beta1-beta2-beta3; huNav1.7-β1-β2-β3
Procedure: (§1) Binding of the ISVDs to cell-expressed Nav1.7α was detected via murine anti-Flag (Sigma, catalog #F1804). Briefly, cells were resuspended in FACS buffer (PBS, 10% FBS, NaN₃) and transferred to a 96-well V-bottom plate at 1×10^5 cells/well. Purified FLAG3-tagged ISVD was diluted in FACS buffer and added to the cells for 30 minutes at 4° C. […] Prior to the read-out, the samples were resuspended in 1 μg/mL propidium iodide (Sigma, catalog #P4170) to exclude dead cells. Between each step, the cells were centrifuged for 5 minutes at 200 grams and washed with 100 μL/well FACS buffer.

rhNav1.7α + β1-β2-β3 = molecular target: T2, rhNav1.7α + β1-β2-β3 (rhesus monkey); experiment: binding FACS, CHO FlpIn
T2 construct: also called rhNav1.7-beta1-beta2-beta3; rhNav1.7-β1-β2-β3
Procedure: as §1

[1] = molecular target: T3, rhNav1.7α + β1-β2-β3 (rhesus Nav1.7α co-expressed with Navβ1, Navβ2 and Navβ3 on cells) (rhesus monkey (α subunit); β subunits …); experiment: binding FACS, CHO FlpIn cells
T3 construct: also called rhNav1.7-beta1-beta2-beta3; CHO FlpIn rhNav1.7α + β1-β2-β3
Summary of the method: (§2)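 Cells in FACS buffer (PBS, 10% FBS, NaN₃) were incubated with purified FLAG3-tagged ISVD for 30 minutes at 4° C. Bound ISVD was detected by flow cytometry with murine anti-Flag, and dead cells were excluded with 1 μg/mL propidium iodide.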

[2] = molecular target: T4, huNav1.7α + β1-β2-β3 (human Nav1.7α co-expressed with human Navβ1, Navβ2 and Navβ3 on cells) (human); experiment: binding FACS, CHO FlpIn cells
T4 construct: also called huNav1.7-beta1-beta2-beta3; CHO FlpIn huNav1.7α + β1-β2-β3
Summary of the method: as §2

Row | Binder | Bmax (huNav1.7α + β1-β2-β3) | EC50 (huNav1.7α + β1-β2-β3) | Bmax (rhNav1.7α + β1-β2-β3) | EC50 (rhNav1.7α + β1-β2-β3) | Bmax [1] | EC50 [1] | Bmax [2] | EC50 [2]
1 | F010302358 (VHH) VHH: EVQLVESGGGVVQPGGSLRLSCAASSRQFIRDVFTGWYRQAPGKQRELVARIYNEGNTQYADSVKGRFTISRDNAKKTVYLQMNSLRPEDTALYYCLFSGTISTGREYRSGDYWGQGTLVTVSS | 100% | 4.5 nM | 37% | 37 nM |  |  |  | 
2 | F010302362 (VHH) VHH: EVQLVESGGGVVQPGGSLRLSCAASHRAFIRDVFTGWYRQAPGKQRELVARIYESGNTQYADSVKGRFTISRDNAKKTVYLQMNSLRPEDTALYYCLFSGTISTGREYRSGDYWGQGTLVTVSS | 100% | 5.4 nM | 89% | 14 nM |  |  |  | 
3 | F010302359 (VHH) VHH: EVQLVESGGGVVQPGGSLRLSCAASSRQFIRDVFTGWYRQAPGKQRELVARIYESGNTQYADSVKGRFTISRDNAKKTVYLQMNSLRPEDTALYYCLFSGTISTGREYRSGDYWGQGTLVTVSS | 100% | 6.4 nM | 66% | 24 nM |  |  |  | 
4 | F010302364 (VHH) VHH: EVQLVESGGGVVQPGGSLRLSCAASHRAFIRDLFTGWYRQAPGKQRELVARIYESGNTNYADSVKGRFTISRDNAKKTVYLQMNSLRPEDTALYYCLFSGTISTGREYRSGDYWGQGTLVTVSS | 100% | 7.2 nM | 74% | 17 nM |  |  |  | 
5 | F010302361 (VHH) VHH: EVQLVESGGGVVQPGGSLRLSCAASHRQFIRDVFTGWYRQAPGKQRELVARIYEGGNTQYADSVKGRFTISRDNAKKTVYLQMNSLRPEDTALYYCLFSGTISTGREYRSGDYWGQGTLVTVSS | 100% | 4.8 nM | 92% | 11 nM |  |  |  | 
6 | F010302360 (VHH) VHH: EVQLVESGGGVVQPGGSLRLSCAASHRQFIRDVFTGWYRQAPGKQRELVARIYNEGNTQYADSVKGRFTISRDNAKKTVYLQMNSLRPEDTALYYCLFSGTISTGREYRSGDYWGQGTLVTVSS | 100% | 3.5 nM | 58% | 15 nM |  |  |  | 
7 | F010302312 (VHH, also called F0103387G04(L11V, A12V, K33R, R39Q, S50Y, S56D, T60A, W78V, S79Y, T83R, V89L, N93R, N100cI)) VHH: EVQLVESGGGVVQPGGSLRLSCAASGPVFNINRMAWYRQAPGKQRELVAYVTPTGDISYADSVKGRFTISRDGSKRVYLQMNSLRPEDTALYYCRALLQPDSYSITRTYWGQGTLVTVSS |  |  |  |  | 100% | 18 nM | 100% | 24 nM
8 | F010301845 (VHH, also called F0103387G04(L11V, A12V, K33R, R39Q, S50Y, S56D, W78V, T83R, V89L, N93R)) VHH: EVQLVESGGGVVQPGGSLRLSCAASGPVFNINRMAWYRQAPGKQRELVAYVTPTGDISYTDSVKGRFTISRDGSKRVSLQMNSLRPEDTALYYCRALLQPDSYSNTRTYWGQGTLVTVSS |  |  |  |  | 100% | 8 nM | 100% | 17 nM
9 | F010301844 (VHH, also called F0103387G04(L11V, A12V, K33R, R39Q, S50Y, S56D, R76N, T83R, V89L, N93R)) VHH: EVQLVESGGGVVQPGGSLRLSCAASGPVFNINRMAWYRQAPGKQRELVAYVTPTGDISYTDSVKGRFTISRDGSKNWSLQMNSLRPEDTALYYCRALLQPDSYSNTRTYWGQGTLVTVSS |  |  |  |  | 100% | 11 nM | 100% | 23 nM
10 | F010301842 (VHH, also called F0103387G04(L11V, A12V, K33R, R39Q, S50Y, S56D, T60A, T83R, V89L, N93R)) VHH: EVQLVESGGGVVQPGGSLRLSCAASGPVFNINRMAWYRQAPGKQRELVAYVTPTGDISYADSVKGRFTISRDGSKRWSLQMNSLRPEDTALYYCRALLQPDSYSNTRTYWGQGTLVTVSS |  |  |  |  | 100% | 7.9 nM | 100% | 15 nM
11 | F010302313 (VHH, also called F0103387G04(L11V, A12V, K33R, R39Q, S50Y, S56D, T60A, G73A, W78V, S79Y, T83R, V89L, N93R, N100cI)) VHH: EVQLVESGGGVVQPGGSLRLSCAASGPVFNINRMAWYRQAPGKQRELVAYVTPTGDISYADSVKGRFTISRDASKRVYLQMNSLRPEDTALYYCRALLQPDSYSITRTYWGQGTLVTVSS |  |  |  |  | 96% | 34 nM | 100% | 38 nM
12 | F010302314 (VHH, also called F0103387G04(L11V, A12V, K33R, R39Q, S50Y, S56D, T60A, G73R, W78V, S79Y, T83R, V89L, N93R, N100cI)) VHH: EVQLVESGGGVVQPGGSLRLSCAASGPVFNINRMAWYRQAPGKQRELVAYVTPTGDISYADSVKGRFTISRDRSKRVYLQMNSLRPEDTALYYCRALLQPDSYSITRTYWGQGTLVTVSS |  |  |  |  | 98% | 14 nM | 100% | 16 nM
13 | F010301841 (VHH, also called F0103387G04(L11V, A12V, K33R, R39Q, S50Y, S56D, T83R, V89L, N93R)) VHH: EVQLVESGGGVVQPGGSLRLSCAASGPVFNINRMAWYRQAPGKQRELVAYVTPTGDISYTDSVKGRFTISRDGSKRWSLQMNSLRPEDTALYYCRALLQPDSYSNTRTYWGQGTLVTVSS |  |  |  |  | 100% | 7.6 nM | 100% | 14 nM
14 | F010301843 (VHH, also called F0103387G04(L11V, A12V, K33R, R39Q, S50Y, S56D, G73N, T83R, V89L, N93R)) VHH: EVQLVESGGGVVQPGGSLRLSCAASGPVFNINRMAWYRQAPGKQRELVAYVTPTGDISYTDSVKGRFTISRDNSKRWSLQMNSLRPEDTALYYCRALLQPDSYSNTRTYWGQGTLVTVSS |  |  |  |  | 100% | 9.3 nM | 100% | 18 nM
15 | F010301656 (VHH, also called F0103387G04(K33R, S50Y, S56D, N93R)) VHH: EVQLVESGGGLAQPGGSLRLSCAASGPVFNINRMAWYRRAPGKQRELVAYVTPTGDISYTDSVKGRFTISRDGSKRWSLQMNSLTPEDTAVYYCRALLQPDSYSNTRTYWGQGTLVTVSS |  |  |  |  | 100% | 8 nM | 100% | 17 nM
16 | F010301847 (VHH, also called F0103387G04(L11V, A12V, K33R, R39Q, S50Y, S56D, T60A, G73N, R76N, W78V, S79Y, T83R, V89L, N93R)) VHH: EVQLVESGGGVVQPGGSLRLSCAASGPVFNINRMAWYRQAPGKQRELVAYVTPTGDISYADSVKGRFTISRDNSKNVYLQMNSLRPEDTALYYCRALLQPDSYSNTRTYWGQGTLVTVSS |  |  |  |  | 100% | 29 nM | 100% | 67 nM
17 | F010302315 (VHH, also called F0103387G04(L11V, A12V, K33R, R39Q, S50Y, S56D, T60A, W78V, S79Y, T83R, V89L, N93R, D99R, N100cI)) VHH: EVQLVESGGGVVQPGGSLRLSCAASGPVFNINRMAWYRQAPGKQRELVAYVTPTGDISYADSVKGRFTISRDGSKRVYLQMNSLRPEDTALYYCRALLQPRSYSITRTYWGQGTLVTVSS |  |  |  |  | 23% | 39 nM | 100% | 7.2 nM
18 | F010301846 (VHH, also called F0103387G04(L11V, A12V, K33R, R39Q, S50Y, S56D, S79Y, T83R, V89L, N93R)) VHH: EVQLVESGGGVVQPGGSLRLSCAASGPVFNINRMAWYRQAPGKQRELVAYVTPTGDISYTDSVKGRFTISRDGSKRWYLQMNSLRPEDTALYYCRALLQPDSYSNTRTYWGQGTLVTVSS |  |  |  |  | 100% | 11 nM | 100% | 21 nM
19 | F010301866 (VHH, also called F0103387G04(L11V, A12V, K33R, R39Q, S50Y, S56D, T60A, R76N, W78V, S79Y, T83R, V89L, N93R)) VHH: EVQLVESGGGVVQPGGSLRLSCAASGPVFNINRMAWYRQAPGKQRELVAYVTPTGDISYADSVKGRFTISRDGSKNVYLQMNSLRPEDTALYYCRALLQPDSYSNTRTYWGQGTLVTVSS |  |  |  |  | 100% | 18 nM | 100% | 38 nM
20 | F010301848 (VHH, also called F0103387G04(L11V, A12V, K33R, R39Q, S50Y, S56D, T60A, G73N, W78V, S79Y, T83R, V89L, N93R)) VHH: EVQLVESGGGVVQPGGSLRLSCAASGPVFNINRMAWYRQAPGKQRELVAYVTPTGDISYADSVKGRFTISRDNSKRVYLQMNSLRPEDTALYYCRALLQPDSYSNTRTYWGQGTLVTVSS |  |  |  |  | 100% | 19 nM | 100% | 44 nM
